Experiments:
[1] = target: T1, human Tim-3 expressed on cells (Jurkat cells stably expressing, Expi293 cells transiently expressing, … (human, UniProt Q8TDQ0 22-301)); assay: flow cytometry on activated human CD4 T cells, KD from MFI curve
T1 construct: whole, on cells; One entry for all cell-surface forms; the cell type is named under assay; also called human Tim-3 expressed on the cell membrane

[2] = target: T1, human Tim-3 expressed on cells (Jurkat …); assay: flow cytometry on activated human CD8 T cells, KD from MFI curve
[3] = target: T1, human Tim-3 expressed on cells (Jurkat …); assay: flow cytometry on Jurkat cells stably expressing human Tim-3, KD from MFI curve
[4] = target: T1, human Tim-3 expressed on cells (Jurkat …); assay: flow cytometry on Expi293 cells transiently expressing human Tim-3, KD from MFI curve
[5] = target: T2, biotinylated human Tim-3-Fc antigen (in-house preparation) (human, biotinylated); assay: competition flow cytometry, biotinylated Tim-3-Fc premixed with antibody, binding to phosphatidylserine on apoptotic Jurkat cells (ligand not a protein)
T2 construct: limits of the Tim-3 part not given

[6] = target: T2, biotinylated human Tim-3-Fc antigen …; assay: competition ELISA: biotinylated human Tim-3-Fc premixed with the antibody, added to plate-bound human Galectin-9 (blocked ligand); streptavidin-HRP; Binding (%)
[7] = target: T3, human Tim-3 IgV domain (aa. 22-130) (human, UniProt Q8TDQ0 22-130); assay: gel filtration of the complex and X-ray crystallography, 2.11 angstrom
T3 construct: range 22-130

| Binder | Kd [1] | Kd [2] | Kd [3] | Kd [4] | IC50 [5] | IC50 (read off the curve) [6] | binding result [7] |
| --- | --- | --- | --- | --- | --- | --- | --- |
| Ch003-LA antibody (antibody, V domains shown, IgG1_LALA type antibody (L234A and L235A in the Fc region of IgG1)) VH: EVMLMESGGGLVKLGGSLKLSCAASGFTFSSYYMSWVRQTPEKRLEWVATISNSGGSIYYLDSVKDRFTISRDNAKNTLYLQMSSLNSEDTAVYYCARDPYYSNYVPMDYWGQGTSVTVSS VL: SIVMTQTPKFMSTSVGDRVSVTCKASQYVDTYVAWYQQKPGQSPKPLIYSASTRHTGVPARFTGSGSGTDFTLTISNVQSEDLAEYFCAQYSSSPLTFGAGTKLELK | 0.105 nM | 0.112 nM | 0.0828 nM | 0.891 nM | 9.91 nM | ~0.5 nM |  |
| Hu149_83_scFv antibody (scFv, not shown: small tags and cut ends, Secreted from E. coli with an N-terminal pelB leader (left out)) scFv: QVQLVQSGAEVKKPGASVKVSCKASGYTFTDYYMDWVRQAPGQGLEWLGYIYPNKGGTSYNQKFKGRVTMTTDKSTSTAYMELRSLRSDDTAVYYCARSGYGNYYTMDYWGQGTTVTVSSGGGGSGGGGSGGGGSGGGGSDIVMTQSQKFMSTSVGDRVSITCKASQSVGNNVAWYQQKPGQSPKLLIYYASNRYTGVPDRFTGSGSGTDFTLTISNMQSEDLADYFCQQHYSSPSTFGGGTKLEIK |  |  |  |  |  |  | binds |

Reference: US20240391997A1 (BRIGHTPATH BIOTHERAPEUTICS, published 2024)
